Measurements: article doi:10.1101/2024.11.27.625426 (bioRxiv, 2024)

Target: N1-CA09-sNAp, stabilized neuraminidase protein of A/California/04/2009 (H1N1) (influenza A virus A/California/04/2009 (H1N1)) (UniProt C3W5S3)
Assay: cryo-EM structure

## N1-CA09-sNAp, stabilized neuraminidase protein of A/California/04/2009 (H1N1) (from UniProt C3W5S3 1-469) (enzyme)
  stoichiometry N: 4 protomers
